2 proteins from patent US20160138042A1 (COMMONWEALTH SCIENTIFIC AND INDUSTRIAL RESEARCH ORGANISATION, published 2016) can be followed below.

The series concerns the molecule itself. Description: directed yeast two-hybrid, self-association (same fragment as bait and prey).

B1: Sr33 CC1-125 (truncated portion of the CC domain of Sr33) (other)
chain: MDIVTGAIAKLIPKLGELLVGEYKLHKGVKKNIEDLLKELKTMNAALIKIGEVPPDQLDSQDKLWADEVRELSYVIEDAVDKFLVRVHGVEPDDNTNGFKGLMKRTTKLLKKVVDKHGIAHAIKD
notes: Expressed as both bait and prey in yeast two-hybrid; The fused GAL4 domains are not included; also called Sr33 CC125
On to B1, for which the binding result is “no binding”.

B2: Sr33 CC1-225 (CC-NB domain of Sr33) (other)
chain: MDIVTGAIAKLIPKLGELLVGEYKLHKGVKKNIEDLLKELKTMNAALIKIGEVPPDQLDSQDKLWADEVRELSYVIEDAVDKFLVRVHGVEPDDNTNGFKGLMKRTTKLLKKVVDKHGIAHAIKDIKKELQEVAARRDRNKFDGIASIPTEAIDPRLRALYIEAAELVGIYGKRDQELMSLLSLEGDDASTKKLKKVSIVGFGGLGKTTLAKAVYEKIKGDFDCH
notes: Expressed as both bait and prey in yeast two-hybrid; The fused GAL4 domains are not included; also called Sr33 CC225
As to B2, the binding result is reported as “no binding”.
